The source of these data is publication PMC3965382.

The target of the test is T1, purified Gαs, P63092.
T1 chain: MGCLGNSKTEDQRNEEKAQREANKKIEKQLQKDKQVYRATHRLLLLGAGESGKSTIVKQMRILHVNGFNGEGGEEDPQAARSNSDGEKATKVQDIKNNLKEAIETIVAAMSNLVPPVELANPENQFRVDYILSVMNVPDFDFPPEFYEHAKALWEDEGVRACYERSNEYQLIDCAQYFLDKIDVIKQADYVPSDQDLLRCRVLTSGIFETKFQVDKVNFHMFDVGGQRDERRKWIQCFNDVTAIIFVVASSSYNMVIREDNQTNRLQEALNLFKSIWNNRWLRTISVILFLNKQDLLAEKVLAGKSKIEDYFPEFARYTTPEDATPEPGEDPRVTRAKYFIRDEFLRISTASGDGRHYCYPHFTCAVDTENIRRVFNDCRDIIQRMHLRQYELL
Nature of the test: SPR. As to conditions: chain shown with the change, read off a plot.

B1: wild-type coronin 1, HA-tagged, O89053 K20A; R69A; K355A; E102A (protein)
chain: MSRQVVRSSKFRHVFGQPAAADQCYEDVRVSQTTWDSGFCAVNPKFMALICEASGGGAFLVLPLGKTGAVDKNVPLVCGHTAPVLDIAWCPHNDNVIASGSADCTVMVWEIPDGGLVLPLREPVITLEGHTKRVGIVAWHPTAQNVLLSAGCDNVILVWDVGTGAAVLTLGPDVHPDTIYSVDWSRDGALICTSCRDKRVRVIEPRKGTVVAEKDRPHEGTRPVHAVFVSEGKILTTGFSRMSERQVALWDTKHLEEPLSLQELDTSSGVLLPFFDPDTNIVYLCGKGDSSIRYFEITSEAPFLHYLSMFSSKESQRGMGYMPKRGLEVNKCEIARFYKLHERKCEPIAMTVPRASDLFQEDLYPPTAGPDPALTAEEWLGGRDAGPLLISLKDGYVPPKSRELRVNRGLDSARRRATPEPSGTPSSDTVSRLEEDVRNLNAIVQKLQERLDRLEETVQAK
On to B1, for which the response amounted to 25 RU (500 nM coronin 1 injected over immobilized Gαs, parent: est. 120) and 76 RU (1000 nM coronin 1 injected over immobilized Gαs, parent: est. 400).
